According to patent US20080292620A1 (Novartis, published 2008):
Substitutions are numbered along the chain they refer to.

Columns and labels:
cynomolgus PRLR ECD [1] = target: T1, cynomolgus PRLR ECD (cynomolgus, UniProt A0A2K5WXK1 25-234); assay: Biacore SPR, antibody covalently immobilized on CM4 chip, PRLR ECD 111 to 1.37 nM
T1 construct: extracellular domain; also called Cyno PRLR
T1 sequence: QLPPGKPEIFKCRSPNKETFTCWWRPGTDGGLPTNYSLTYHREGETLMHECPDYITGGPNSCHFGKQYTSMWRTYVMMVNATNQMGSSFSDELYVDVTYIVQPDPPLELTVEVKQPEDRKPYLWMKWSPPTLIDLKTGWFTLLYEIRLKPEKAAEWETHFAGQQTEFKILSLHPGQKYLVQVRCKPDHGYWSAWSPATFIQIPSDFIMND

[2] = target: T2, recombinant extracellular domain (ECD) of the human prolactin receptor (PRLR) (human, UniProt P16471 25-234); assay: as above
T2 construct: also called PRLR ECD; Human PRLR; not shown: His tag
T2 sequence: T1 sequence with V76I, T110A, M125I, T158I, I207T

murine PRLR ECD [3] = target: T3, murine PRLR ECD (mouse, UniProt Q08501 20-229); assay: Biacore SPR, antibody covalently immobilized on CM4 chip, PRLR ECD 111 to 1.37 nM; same run as N2: antibody covalently immobilized on CM4, PRLR ECD 111 to 1.37 nM; very weak fitted binding
T3 construct: extracellular domain; also called Mouse PRLR
T3 sequence (looked up): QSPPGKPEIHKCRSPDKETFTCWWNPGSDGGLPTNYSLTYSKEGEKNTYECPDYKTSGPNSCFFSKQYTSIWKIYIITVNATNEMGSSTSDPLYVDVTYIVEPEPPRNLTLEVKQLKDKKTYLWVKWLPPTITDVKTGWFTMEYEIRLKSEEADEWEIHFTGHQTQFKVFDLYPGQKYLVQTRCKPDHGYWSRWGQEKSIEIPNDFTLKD
Description: (§1) In order to compare rat and mouse cross reactivity using covalently immobilized antibodies, a CM4 chip was coupled with he.06.642-2 and he.06.275-4 antibodies via standard EDC-NHS amine coupling chemistries according to the recommended protocol from Biacore® Inc. The PRLR ECD injections were performed at five concentrations in a three fold titration series starting at 111 nM and going down to 1.37 nM. Regeneration was performed with Glycine pH3.0. The affinity of all of the HE variants of XHA.06.642 and XHA.06.275 are very similar to the affinity of the parental chimeric antibody. Antibody he.06.642-2 binds to human, mouse and rat PRLR with equivalent affinity.

rat PRLR ECD = target: T4, rat PRLR ECD (rat, UniProt P05710 20-229); assay: Biacore SPR, antibody covalently immobilized on CM4 chip
T4 construct: extracellular domain
T4 sequence (looked up): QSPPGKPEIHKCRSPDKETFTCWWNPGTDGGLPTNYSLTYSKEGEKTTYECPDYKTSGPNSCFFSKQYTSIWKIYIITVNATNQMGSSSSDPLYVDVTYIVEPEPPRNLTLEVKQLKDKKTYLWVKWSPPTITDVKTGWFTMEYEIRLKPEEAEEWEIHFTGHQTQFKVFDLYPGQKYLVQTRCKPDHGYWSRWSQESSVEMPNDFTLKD
Description: as §1

cynomolgus PRLR ECD [4] = target: T1, cynomolgus PRLR ECD; assay: Biacore SPR, antibody captured on Protein A/G, kinetic titration of PRLR ECD, 1:1 Langmuir
Description: (§2) Affinity of the chimerized and Human Engineered™ antibodies determined by Biacore analysis. Briefly, a CM5 sensor chip (Biacore) immobilized with Protein A/G (Pierce) via NHS/EDC was used to capture approximately 600 RU of antibody on the chip surface. Five concentrations of PRLR ECD beginning at 5 ug/mL (185 nM) and serially diluted at 5× dilution to 0.3 nM were injected from lowest to highest concentration in the kinetic titration injection mode, and 15 minutes of dissociation data was collected. The experiments were double-referenced, i.e. an adjacent flow cell response was subtracted automatically, and the response from a buffer injection experiment was subtracted from the experimental data set. Kinetic and derived parameters (kₐ, kd and KD) were determined by fitting to a 1:1 Langmuir model using BiaEval software customized to the kinetic titration injection mode. Affinity measurements of both chimeric and all Human Engineered™ antibodies against human and cynomolgus PRLR ECD are summarized in Table 9 and Table 10.

[5] = target: T2, recombinant extracellular domain (ECD) …; assay: as above
Description: as §2

murine PRLR ECD [6] = target: T3, murine PRLR ECD; assay: Biacore SPR, antibody covalently immobilized on CM4 chip, PRLR ECD 111 to 1.37 nM; same run as N2: KD about 17.6 uM, far above the top concentration of 111 nM, which the text calls not binding effectively
Description: as §1

B1: he.06.275-4 (antibody, V domains shown)
VH: QVQLQESGPGLVKPSQTLSLTCTVSGYSITSDYAWNWIRQFPGKGLEWMGYISYSGSTSYNPSLKSRITISRDTSKNQFSLQLNSVTAADTAVYFCARDYGYVFDYWGQGTTLTVSS
VL: DVQITQSPSSLSASPGDRITLTCRASKNIYKYLAWYQEKPGKANKLLIYSGSTLHSGIPSRFSGSGSGTDFTLTISSLQPEDFAMYYCQQHNDYPYTFGQGTKLEIK
notes: Human Engineered
**Q.** Which results are given for B1?
**A.** Kd (cynomolgus PRLR ECD [1]): 6.4 nM; Kd [2]: 1.3 nM; koff (murine PRLR ECD [3]): 0.037 s⁻¹; kon (murine PRLR ECD [3]): 2100 M⁻¹ s⁻¹; binding result (rat PRLR ECD): no binding (tested: PRLR ECD up to 111 nM); Kd (cynomolgus PRLR ECD [4]): 1.7 nM; Kd [5]: 0.52 nM; Kd (murine PRLR ECD [6]): 17600 nM
